Assay results reported in the supplement of paper PMC12338614.
± gives the uncertainty stated by the source.

B1: library; numbered along this chain (parent)
chain: MEVVDPQQLGMFTEGELMSVGMDTFIHRIDSTEVIYQPRRKRAKLIGKYLMGDLLGEGSYGKVKEVLDSETLCRRAVKILKKKKLRRIPNGEANVKKEIQLLRRLRHKNVIQLVDVLYNEEKQKMYMVMEYCVCGMQEMLDSVPEKRFPVCQAHGYFCQLIDGLEYLHSQGIVHKDIKPGNLLLTTGGTLKISDLGVAEALHPFAADDTCRTSQGSPAFQPPEIANGLDTFSGFKVDIWSAGVTLYNITTGLYPFEGDNIYKLFENIGKGSYAIPGDCGPPLSDLLKGMLEYEPAKRFSIRQIRQHSWFRKKHPPAEAPVPIPPSPDTKDRWRSMTVVPYLEDLHGADEDEDLFDIEDDIIYTQDFTVPGQVPEEEASHNGQRRGLPKAVCMNGTEAAQLSTKSRAEGRAPNPARKACSASSKIRRLSACKQQ

Variants of: B1
Experiment: STK11 functional score (HeLa growth suppression), rescaled enrichment; synonymous median = 1, nonsense median = 0 (normalised score)
Details: with HeLa; variant type: missense
Procedure: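 Deep mutational scan (TileSeq/POPCode codon randomisation) of full-length codon-optimised STK11 cDNA integrated at a Bxb1 landing pad (AAVS1) in HeLa cells. Restoring functional STK11 suppresses HeLa proliferation. Variant frequencies were measured by NGS before and after about two weeks of growth. The error-corrected enrichment log-ratio was rescaled so that synonymous median = 1 and nonsense median = 0, scores above 1 were compressed, and codon-level and three biological replicate scores were combined; error is the bootstrapped standard error. Scale: synonymous median = 1, nonsense median = 0; below 0.5 = damaging.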

| Variant | STK11 functional score |
| --- | --- |
| A429R | 1.5 ± 0.17 |
| E33L | 1 ± 0.13 |
| I161E | -0.456 ± 0.065 |
| I161H | -0.2 ± 0.12 |
| P319A | 1.37 ± 0.32 |
| P319D | 1.52 ± 0.16 |
| G394F | 1.17 ± 0.11 |
| K311P | 1.07 ± 0.4 |
| K311Y | 1.06 ± 0.41 |
| G233R | 0.173 ± 0.3 |
| S307V | 1.34 ± 0.16 |
| H202S | 1.17 ± 0.25 |
| A347Y | 1.34 ± 0.44 |
| A347V | 1.23 ± 0.32 |
| R28P | 0.47 ± 0.12 |
| D53G | 0.726 ± 0.14 |
| G346P | 1.61 ± 0.14 |
| G346S | 1.48 ± 0.22 |
| I260T | 1.33 ± 0.69 |
| I260R | 1.66 ± 0.16 |
| I260A | 0.468 ± 0.26 |
| N90W | 0.707 ± 0.4 |
| I274D | 0.889 ± 0.3 |
| P321I | 1.53 ± 0.16 |

| Variant | STK11 functional score |
| --- | --- |
| K82P | 1.69 ± 0.18 |
| K82R | 1.66 ± 0.4 |
| L102R | 0.466 ± 0.086 |
| I322Y | 0.925 ± 0.36 |
| F366D | 1.6 ± 0.14 |
| S142I | 0.895 ± 0.26 |
| V143Y | 1.52 ± 0.22 |
| V143N | 1.68 ± 0.4 |
| I248A | 1.15 ± 0.26 |
| H107W | 0.165 ± 0.27 |
| D115S | 1.6 ± 0.15 |
| V20C | 0.242 ± 0.13 |
| R106Y | 1.64 ± 0.16 |
| R106I | 1.71 ± 0.18 |
| Q382S | 1.5 ± 0.19 |
| T185Y | 0.976 ± 0.12 |
| N247L | 1.17 ± 0.15 |
| N247A | 1.37 ± 0.11 |
| L80H | 0.878 ± 0.092 |
| I224Q | 0.698 ± 0.65 |
| R383G | 1.11 ± 0.35 |
| I361N | 1.27 ± 0.24 |
| E342G | 1 ± 0.34 |
| L113C | 1.16 ± 0.54 |

| Variant | STK11 functional score |
| --- | --- |
| C278T | 1.22 ± 0.19 |
| I172S | 0.549 ± 0.27 |
| I172W | 0.519 ± 0.11 |
| K44N | 1.08 ± 0.33 |
| M22T | 1.63 ± 0.51 |
| D5H | 1.13 ± 0.53 |
| R147I | 1.22 ± 0.2 |
| R147L | 0.461 ± 0.097 |
| R147Y | 1.47 ± 0.14 |
| D229W | 0.347 ± 0.17 |
| D229T | 1.67 ± 0.13 |
| D229S | 1.01 ± 0.28 |
| L182V | 0.907 ± 0.12 |
| L182R | 0.129 ± 0.17 |
| C73T | 1.6 ± 0.45 |
| P281Y | 1.38 ± 0.23 |
| G61M | 0.0916 ± 0.085 |
| A198V | 1.38 ± 0.19 |
| L290I | 1.06 ± 0.21 |
| F157L | 0.19 ± 0.45 |
| S59F | 0.672 ± 0.24 |
| S59H | 1.09 ± 0.58 |
| P323W | 0.993 ± 0.6 |
| P323E | 1.56 ± 0.27 |

| Variant | STK11 functional score |
| --- | --- |
| I35G | 1.25 ± 0.57 |
| K97S | 0.724 ± 0.17 |
| K97G | 0.699 ± 0.38 |
| K97A | 1.47 ± 0.27 |
| A406Y | 1.07 ± 0.58 |
| R405P | 1.27 ± 0.49 |
| F148Q | 0.0904 ± 0.082 |
| D194Y | -0.089 ± 0.093 |
| L285A | -0.0789 ± 0.071 |
| L285R | -0.201 ± 0.1 |
| E374G | 1.12 ± 0.33 |
| E374P | 1.42 ± 0.26 |
| I79C | 0.264 ± 0.28 |
| F234G | 1.33 ± 0.41 |
| K388N | 1.53 ± 0.49 |
| K388T | 1.42 ± 0.34 |
| L286D | -0.166 ± 0.12 |
| Y246G | 0.403 ± 0.093 |
| I300L | 1.25 ± 0.1 |
| I360D | 0.487 ± 0.42 |
| D350E | 1.25 ± 0.56 |
| D350V | 1.19 ± 0.34 |
| S240Q | 0.866 ± 0.15 |
| S240T | 1.07 ± 0.16 |

| Variant | STK11 functional score |
| --- | --- |
| S240A | 0.891 ± 0.13 |
| G251Y | 0.258 ± 0.24 |
| E165V | 0.465 ± 0.35 |
| E165Y | 1.24 ± 0.15 |
| I303D | -0.579 ± 0.078 |
| W308V | -0.266 ± 0.088 |
| G257Y | 1.57 ± 0.13 |
| Q305I | 1.53 ± 0.14 |
| Q305A | 1.33 ± 0.15 |
| Q305E | 1.02 ± 0.38 |
| A241D | 0.383 ± 0.2 |
| G279N | 1.57 ± 0.16 |
| H27M | 1.63 ± 0.12 |
| G47V | 0.431 ± 0.69 |
| F354H | 1.34 ± 0.28 |
| F354A | 1.54 ± 0.21 |
| G180P | 0.814 ± 0.13 |
| V128G | 0.233 ± 0.1 |
| V128R | 0.15 ± 0.084 |
| S216R | -0.166 ± 0.096 |
| S216T | 0.847 ± 0.13 |
| K416T | 1.37 ± 0.65 |
| K416I | 1.55 ± 0.19 |
| K416P | 1.61 ± 0.21 |

| Variant | STK11 functional score |
| --- | --- |
| K146D | 0.483 ± 0.13 |
| L183R | 0.0747 ± 0.097 |
| L183V | 1.2 ± 0.18 |
| P6A | 0.942 ± 0.1 |
| D284N | 1.29 ± 0.37 |
| V34S | 1.29 ± 0.16 |
| H379P | 1.46 ± 0.23 |
| T336M | 0.732 ± 0.077 |
| T336L | 1.39 ± 0.15 |
| G227V | 0.625 ± 0.1 |
| L160P | -0.129 ± 0.071 |
| F309R | 0.0957 ± 0.13 |
| K423N | 1.52 ± 0.34 |
| K423Q | 0.701 ± 0.61 |
| R384Y | 1.53 ± 0.12 |
| A377M | 1.51 ± 0.27 |
| L140H | -0.0286 ± 0.083 |
| L140V | 0.909 ± 0.079 |
| I29N | 1.49 ± 0.75 |
| E407C | 1.21 ± 0.12 |
| A273N | 1.3 ± 0.24 |
| L45S | 1.36 ± 0.14 |
| L45A | 0.863 ± 0.17 |
| I177P | 0.166 ± 0.58 |

| Variant | STK11 functional score |
| --- | --- |
| I177H | -0.12 ± 0.21 |
| Q100D | 1.57 ± 0.19 |
| Q100L | 0.857 ± 0.23 |
| V4T | 1.06 ± 0.15 |
| F204C | 0.849 ± 0.29 |
| P324E | 1.53 ± 0.098 |
| L184A | 0.745 ± 0.32 |
| L184I | 0.978 ± 0.22 |
| L282M | 0.225 ± 0.27 |
| S69G | 1.69 ± 0.28 |
| E375A | 1.13 ± 0.25 |
| E375Q | 1.12 ± 0.61 |
| T212A | 1.41 ± 0.17 |
| T212L | 1.06 ± 0.33 |
| E70R | 1.67 ± 0.32 |
| A410K | 1.6 ± 0.2 |
| A410C | 1.33 ± 0.13 |
| V243S | 0.561 ± 0.11 |
| R333P | 1.64 ± 0.23 |
| R333Y | 1.55 ± 0.23 |
| R103T | 1.32 ± 0.27 |
| R103C | 1.05 ± 0.22 |
| K124V | 1.06 ± 0.11 |
